Results from patent US20110223165A1 (Amgen, published 2011).
Values belong to the binder of their own block, whether it stands above or below them.

Columns and labels:
[1] = biological target: T1, Fcγ receptor I (CD64) on U-937 cells (UniProt P12314 16-374, limits assumed); assay: binding to U-937 cells
T1 construct: whole, on cells; also called FcγRI

[2] = biological target: T2, human membrane c-Kit on cells (human, UniProt P10721 26-976); assay: cell-based or functional assay
[3] = biological target: T2, human membrane c-Kit on cells; assay: cell-based or functional assay; remark: listed apart in the source
[4] = biological target: T3, recombinant c-Kit receptor-Fc (UniProt P10721 26-520, limits assumed); assay: KinExA equilibrium binding; KinExA equilibrium binding; recombinant c-Kit receptor-Fc
T3 construct: not shown: Fc part

[5] = biological target: c-Kit (form in the assay not stated) (UniProt P10721 26-520, limits assumed); assay: Biacore assay, blocking of SCF binding to c-Kit; Biacore; blocking of SCF binding; c-Kit form not stated
c-Kit (form in the assay not stated), sequence (P10721 26-520 limits assumed): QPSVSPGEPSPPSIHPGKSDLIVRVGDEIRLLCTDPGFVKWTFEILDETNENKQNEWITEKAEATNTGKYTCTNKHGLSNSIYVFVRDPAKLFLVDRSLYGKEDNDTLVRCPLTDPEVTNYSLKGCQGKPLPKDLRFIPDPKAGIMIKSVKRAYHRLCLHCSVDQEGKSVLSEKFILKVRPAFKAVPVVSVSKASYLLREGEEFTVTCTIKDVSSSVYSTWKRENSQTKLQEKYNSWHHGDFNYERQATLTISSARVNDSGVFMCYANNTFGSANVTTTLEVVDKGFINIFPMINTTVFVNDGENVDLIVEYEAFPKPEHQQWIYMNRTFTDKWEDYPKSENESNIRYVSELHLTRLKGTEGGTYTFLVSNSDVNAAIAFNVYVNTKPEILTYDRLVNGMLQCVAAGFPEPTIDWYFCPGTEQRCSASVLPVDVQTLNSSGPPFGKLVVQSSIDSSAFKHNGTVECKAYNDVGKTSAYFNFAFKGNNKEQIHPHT

T2 sequence (P10721 26-976): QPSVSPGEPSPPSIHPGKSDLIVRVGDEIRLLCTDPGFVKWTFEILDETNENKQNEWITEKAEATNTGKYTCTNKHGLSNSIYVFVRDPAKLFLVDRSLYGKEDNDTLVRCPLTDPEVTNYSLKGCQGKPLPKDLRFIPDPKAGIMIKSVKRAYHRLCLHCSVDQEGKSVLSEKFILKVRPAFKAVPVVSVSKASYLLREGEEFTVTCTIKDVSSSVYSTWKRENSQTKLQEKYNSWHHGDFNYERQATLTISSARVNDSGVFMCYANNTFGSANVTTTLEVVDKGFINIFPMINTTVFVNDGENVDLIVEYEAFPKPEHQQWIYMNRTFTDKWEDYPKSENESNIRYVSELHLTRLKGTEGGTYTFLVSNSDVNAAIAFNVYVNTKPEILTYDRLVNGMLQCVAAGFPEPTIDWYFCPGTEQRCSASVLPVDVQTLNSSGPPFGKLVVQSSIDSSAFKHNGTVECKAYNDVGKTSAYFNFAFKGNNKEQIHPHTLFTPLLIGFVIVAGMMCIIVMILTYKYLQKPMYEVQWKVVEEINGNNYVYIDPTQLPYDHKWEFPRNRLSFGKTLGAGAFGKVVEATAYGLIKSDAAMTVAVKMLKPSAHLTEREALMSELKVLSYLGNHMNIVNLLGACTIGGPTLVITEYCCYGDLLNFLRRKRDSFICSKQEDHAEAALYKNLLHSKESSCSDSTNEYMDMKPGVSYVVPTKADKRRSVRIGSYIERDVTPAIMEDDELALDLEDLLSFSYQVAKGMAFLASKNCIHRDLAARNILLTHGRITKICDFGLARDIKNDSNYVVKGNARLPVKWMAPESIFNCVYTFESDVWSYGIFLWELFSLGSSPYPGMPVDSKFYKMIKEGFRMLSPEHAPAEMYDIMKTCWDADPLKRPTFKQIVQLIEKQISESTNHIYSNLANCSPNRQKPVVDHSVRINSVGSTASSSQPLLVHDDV
T1 sequence (P12314 16-374 limits assumed): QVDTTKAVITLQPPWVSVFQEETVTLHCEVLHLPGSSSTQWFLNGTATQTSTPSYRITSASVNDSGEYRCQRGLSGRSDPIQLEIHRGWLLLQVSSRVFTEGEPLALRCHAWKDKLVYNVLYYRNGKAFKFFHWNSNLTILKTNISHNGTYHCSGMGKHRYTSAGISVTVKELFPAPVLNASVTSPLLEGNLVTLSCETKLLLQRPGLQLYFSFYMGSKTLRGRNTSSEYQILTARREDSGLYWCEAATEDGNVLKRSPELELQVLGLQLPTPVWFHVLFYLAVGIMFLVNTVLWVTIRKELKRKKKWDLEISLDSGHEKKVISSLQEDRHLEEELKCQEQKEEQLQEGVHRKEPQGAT
T3 sequence (P10721 26-520 limits assumed): as the sequence (P10721 26-520 limits assumed) above

binding result [1]: no binding
UT-7 IC50 [3]: 4.5 ng/mL
Kd [4]: 1 pM
Ki [5]: 70 pM
B1: Humanized SR-1 aglycosylated IgG1 (hSR-1 aIgG1) (antibody)
heavy: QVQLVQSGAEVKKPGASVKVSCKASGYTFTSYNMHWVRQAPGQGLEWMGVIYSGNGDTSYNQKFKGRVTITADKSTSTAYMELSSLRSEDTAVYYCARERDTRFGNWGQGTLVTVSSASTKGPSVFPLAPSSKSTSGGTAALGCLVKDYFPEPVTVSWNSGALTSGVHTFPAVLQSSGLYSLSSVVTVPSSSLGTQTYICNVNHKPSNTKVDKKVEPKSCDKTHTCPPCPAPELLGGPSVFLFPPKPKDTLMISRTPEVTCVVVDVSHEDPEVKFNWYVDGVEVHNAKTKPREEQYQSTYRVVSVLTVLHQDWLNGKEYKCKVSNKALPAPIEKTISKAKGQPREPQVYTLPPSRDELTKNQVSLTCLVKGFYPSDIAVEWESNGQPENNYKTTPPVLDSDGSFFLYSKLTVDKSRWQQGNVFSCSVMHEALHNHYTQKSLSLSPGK
light: DIVMTQSPDSLAVSLGERATINCRASESVDIYGNSFMHWYQQKPGQPPKLLIYLASNLESGVPDRFSGSGSGTDFTLTISSLQAEDVAVYYCQQNNEDPYTFGGGTKVEIKRTVAAPSVFIFPPSDEQLKSGTASVVCLLNNFYPREAKVQWKVDNALQSGNSQESVTEQDSKDSTYSLSSTLTLSKADYEKHKVYACEVTHQGLSSPVTKSFNRGEC
notes: also called Humanized SR-1 aIgG1; Humanized SR-1 aglyco-IgG1
IC50, SCF-dependent survival/proliferation of UT-7 cells [2]: 35 pM

UT-7 IC50 [3]: 3.6 ng/mL
B2: murine anti-human c-Kit monoclonal antibody SR-1 (antibody, mouse IgG2a, kappa, V domains shown)
VH: QVQLQQPGAELVKPGASVKMSCKASGYTFTSYNMHWVKQTPGQGLEWIGVIYSGNGDTSYNQKFKGKATLTADKSSSTAYMQINSLTSEDSAVYYCARERDTRFGNWGQGTLVTVSA
VL: NIVLTQSPASLAVSLGLRATISCRASESVDIYGNSFMHWYQQKPGQPPKLLIYLASNLESGVPARFSGSGSRTDFTLTIDPVEADDAATYYCQQNNEDPYTFGGGTKLEIKR
